Data reported in the supplement of paper PMC10567573.

B1: PTPLAD1 (parent)
chain: YSFYMLTCIDMDWKVLTWLRYTLW
B2: TPRG1 (parent)
chain: ETIQGFWLLTKIDHWNNEKERILL

Variants of: B1
Test: protein stability index of a GFP-peptide fusion (GPS, HEK-293T) (PSI 1-6); higher = more stable
Settings: c terminus: a fixed tail appended
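Further: lentivirally expressed fusions sorted by FACS into six bins by GFP to DsRed ratio, PSI derived from sequencing read proportions per bin multiplied by bin number.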

Variant	protein stability index
L23A	3.26
L23I	2.88
L23Q	3.84
L23D	2.6
L23R	4.16
L23S	2.99
L23C	4.3
L23W	2.4
L23H	2.58
L23F	2.46
L23E	2.74
L23T	4.8
L23P	4.2
L19I	2.06
L19Q	3.25
L19D	4.18
L19N	3.55
L19W	2.31
L19K	2.22
L19A	2.9
L19P	3.35

Variant	protein stability index
L19S	1.22
L19M	1.93
L19H	2.65
L19E	2.83
L19F	3.32
L19R	2.4
L19Y	2.91
W18V	2.83
W18T	3.35
R20T	3.6
R20F	1.28
R20N	4.06
R20Y	2.42
R20W	1.06
R20P	3.84
R20V	2.13
R20I	1.69
R20H	4.19
R20K	3.46
R20M	2.04
R20G	3

Variant	protein stability index
R20L	1.23
R20C	1.52
R20A	2.88
W24D	4.01
W24I	3.4
W24M	3.14
W24K	1.37
W24H	3.02
W24E	2.77
W24P	2.58
W24C	2.42
W24N	2.55
W24A	2.83
W24G	2.39
W24R	2.04
W24Y	2.72
W24F	2.24
T22H	2.85
T22M	2.12
T22F	2.08
T22R	2.25

Variant	protein stability index
T22V	1.99
T22A	2.78
T22Q	2.2
T22C	2.07
T22Y	2.26
T22N	2.27
Y21F	2.66
Y21E	3.44
Y21Q	2.17
Y21I	2.98
Y21G	3.32
Y21N	4.05
Y21L	3.2
Y21R	2.05
Y21V	2.28
Y21C	4.75
Y21W	1.84
Y21S	3.16

Variants of: B2
Test: as above
Settings: c terminus: a fixed tail appended

Variant	protein stability index
Q4T	1.88
Q4K	2.89
